Target: T1, pMAL–PP2AA–His (Toxoplasma gondii PP2A A subunit) (Toxoplasma gondii, UniProt S8EX93 1-766)
T1 construct: PP2A A subunit of Toxoplasma gondii (TGME49_315670), amplified from Toxoplasma cDNA; printed length 766 aa, ~130 kDa with the pMAL tag; also called PP2A scaffold (A) subunit; source: E. coli, purified (MBPSep Dextrin Agarose Resin, eluted with 10 mM maltose); not shown: MBP (from the vector pMAL)
T1 sequence (looked up): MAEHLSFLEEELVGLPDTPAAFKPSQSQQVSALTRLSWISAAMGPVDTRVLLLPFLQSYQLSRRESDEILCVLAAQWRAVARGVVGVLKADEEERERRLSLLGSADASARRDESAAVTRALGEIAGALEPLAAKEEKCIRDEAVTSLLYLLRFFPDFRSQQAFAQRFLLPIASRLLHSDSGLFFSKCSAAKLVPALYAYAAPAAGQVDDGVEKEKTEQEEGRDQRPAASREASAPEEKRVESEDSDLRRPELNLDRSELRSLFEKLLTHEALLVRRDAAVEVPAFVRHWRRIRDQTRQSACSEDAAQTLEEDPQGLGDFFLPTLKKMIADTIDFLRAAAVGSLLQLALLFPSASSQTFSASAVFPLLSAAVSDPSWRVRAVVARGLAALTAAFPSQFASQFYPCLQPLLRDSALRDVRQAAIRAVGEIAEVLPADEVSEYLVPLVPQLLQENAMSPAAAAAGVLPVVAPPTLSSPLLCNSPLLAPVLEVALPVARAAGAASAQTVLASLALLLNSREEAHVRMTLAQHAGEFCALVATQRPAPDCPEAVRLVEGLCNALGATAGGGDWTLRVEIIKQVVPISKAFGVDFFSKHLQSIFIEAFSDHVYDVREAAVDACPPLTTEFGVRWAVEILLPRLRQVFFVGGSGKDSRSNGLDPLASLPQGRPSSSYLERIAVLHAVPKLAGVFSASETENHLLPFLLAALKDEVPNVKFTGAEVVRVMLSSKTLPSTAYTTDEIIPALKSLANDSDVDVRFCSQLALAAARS
Test: pull-down; anti-His or anti-HA magnetic beads washed with TBS, incubated with the tagged protein 5 h at 4 °C, then with the target protein 5 h; washed, eluted, Western blot
Settings: both partners purified

B1: pMAL–PP2AC–HA (Toxoplasma gondii PP2A C subunit) (enzyme, UniProt A0A125YNB3 1-347, looked up)
chain: MSGATPGAVAALQPASAAPALFTIPADVAPSDLPDHYLGQEELRGIDKQMEKLFKCEKLDEEEVRSLCAVLKDILVQEANVQPVRTPVTVVGDIHGQFHDLLEIFKCAGTCPSVNFLFLGDYVDRGLNSVESVSLVFLLKVRYRHRVTLIRGNHESRQITQVYGFYDECLRKYGNANVWNYFTDVFDYLPLSALIEDQIFCPHAGLSPTIETLDHVRLLERFQEVPHEGPMCDLLWSDPEEQMPGWGMSPRGAGYTFGQDISEKFNHVNGLKLIARAHQLIMEGFQWSQANNVVTIFSAPNYCYRCGNQAAIMKIDEHMNYTFIQFNPSLLQASGADMQKRIPDYFL
notes: PP2A C subunit of Toxoplasma gondii (TGME49_224220), amplified from Toxoplasma cDNA; printed length 347 aa, ~80 kDa with the pMAL tag; also called PP2A catalytic (C) subunit; source: E. coli, purified (MBPSep Dextrin Agarose Resin, eluted with 10 mM maltose); not shown: MBP (from the vector pMAL)
binding result: binds
